From PMC6546747, “Wwp2 maintains cartilage homeostasis through regulation of Adamts5” (Nature Communications, 2019)

Target: T1, Wwp2 protein purified from transfected HEK293T cells (in vitro pull-down) (mouse, UniProt Q9DBH0 1-870)
T1 construct: Wwp2; plasmids were built from full-length cDNA NM_025830.3; source: HEK293T, transfected, purified (tagged protein magnetic purification kit)
Assay: pull-down; in vitro pull-down using His-tag (Dynabeads His-Tag Isolation and Pulldown); proteins purified from transfected HEK293T cells
Settings: both partners purified

T1 sequence (Q9DBH0 whole entry): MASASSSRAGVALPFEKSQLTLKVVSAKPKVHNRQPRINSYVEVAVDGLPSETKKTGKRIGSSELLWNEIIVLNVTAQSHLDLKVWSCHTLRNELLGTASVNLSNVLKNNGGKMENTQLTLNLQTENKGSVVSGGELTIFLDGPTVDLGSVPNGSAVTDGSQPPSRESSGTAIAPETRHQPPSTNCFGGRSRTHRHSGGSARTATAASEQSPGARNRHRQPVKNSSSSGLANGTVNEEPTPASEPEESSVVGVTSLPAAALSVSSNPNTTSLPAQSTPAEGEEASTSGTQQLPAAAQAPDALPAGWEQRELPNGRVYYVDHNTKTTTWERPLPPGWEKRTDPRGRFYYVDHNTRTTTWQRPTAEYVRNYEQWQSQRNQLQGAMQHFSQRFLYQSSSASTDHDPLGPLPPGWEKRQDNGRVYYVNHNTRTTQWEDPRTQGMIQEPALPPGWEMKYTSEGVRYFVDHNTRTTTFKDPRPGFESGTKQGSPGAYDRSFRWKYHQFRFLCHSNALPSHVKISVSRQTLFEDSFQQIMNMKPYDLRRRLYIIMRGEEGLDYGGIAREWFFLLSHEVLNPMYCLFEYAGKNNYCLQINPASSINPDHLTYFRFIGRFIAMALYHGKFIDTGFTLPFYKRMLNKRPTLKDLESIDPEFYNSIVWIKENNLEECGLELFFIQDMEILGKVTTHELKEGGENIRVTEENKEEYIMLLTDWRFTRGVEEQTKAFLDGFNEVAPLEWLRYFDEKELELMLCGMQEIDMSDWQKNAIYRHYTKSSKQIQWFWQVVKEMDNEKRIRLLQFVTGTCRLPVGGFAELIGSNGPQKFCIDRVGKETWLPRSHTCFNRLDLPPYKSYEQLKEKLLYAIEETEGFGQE

binding result: binds
B1: Runx2 protein purified from transfected HEK293T cells (in vitro pull-down) (natural protein, mouse, UniProt Q08775-5 1-528, looked up)
chain: MASNSLFSAVTPCQQSFFWDPSTSRRFSPPSSSLQPGKMSDVSPVVAAQQQQQQQQQQQQQQQQQQQQQQQQQQQQQEAAAAAAAAAAAAAAAAAAVPRLRPPHDNRTMVEIIADHPAELVRTDSPNFLCSVLPSHWRCNKTLPVAFKVVALGEVPDGTVVTVMAGNDENYSAELRNASAVMKNQVARFNDLRFVGRSGRGKSFTLTITVFTNPPQVATYHRAIKVTVDGPREPRRHRQKLDDSKPSLFSDRLSDLGRIPHPSMRVGVPPQNPRPSLNSAPSPFNPQGQSQITDPRQAQSSPPWSYDQSYPSYLSQMTSPSIHSTTPLSSTRGTGLPAITDVPRRISDDDTATSDFCLWPSSLSKKSQAGASELGPFSDPRQFPSISSLTESRFSNPRMHYPATFTYTPPVTSGMSLGMSATTHYHTYLPPPYPGSSQSQSGPFQTSSTPYLYYGTSSASYQFPMVPGGDRSPSRMVPPCTTTSNGSTLLNPNLPNQNDGVDADGSHSSSPTVLNSSGRMDESVWRPY
notes: Runx2; plasmids were built from full-length cDNA NM_001146038.2; source: HEK293T, transfected, purified (tagged protein magnetic purification kit)
